The values below come from paper PMC3423979 (Nature chemical biology, 2012).

Where no end group is shown, it is not given here. [ ]: non-standard residue; d: D form. pY = N[C@@H](Cc1ccc(OP(=O)(O)O)cc1)C(=O)O

Assay [1] concerns the target full-length CrkL (residues 1–303) (human) (UniProt P46109). The assay is described as follows: ITC. For orientation: ITC needs no label: the signal is the heat of the interaction.
Assay [2] concerns the target CrkL SH2 (residues 1–105) (human) (UniProt P46109). Briefly: ITC.
Assay [3] has as its target CrkL SH2 (residues 1–105) (human, UniProt P46109 1-105). Briefly: ITC.
The target in assay [4] is phosphorylated (pTyr207) CrkL (human, UniProt P46109 1-303, phosphotyrosine at 207 (pTyr207)). The assay is described as follows: ITC.
The target of assay [5] is CrkL SH3^N (residues 120–188) (human, UniProt P46109 120-188). Briefly: ITC.
Assay [6] addresses full-length CrkL (residues 1–303) (human, UniProt P46109 1-303). Briefly: NMR titration.

What is called Kd is the constant that tells how readily two partners part at equilibrium. Higher therefore signals weaker binding.

Sequence of phosphorylated (pTyr207) CrkL (P46109 whole entry, the tested form may be a part): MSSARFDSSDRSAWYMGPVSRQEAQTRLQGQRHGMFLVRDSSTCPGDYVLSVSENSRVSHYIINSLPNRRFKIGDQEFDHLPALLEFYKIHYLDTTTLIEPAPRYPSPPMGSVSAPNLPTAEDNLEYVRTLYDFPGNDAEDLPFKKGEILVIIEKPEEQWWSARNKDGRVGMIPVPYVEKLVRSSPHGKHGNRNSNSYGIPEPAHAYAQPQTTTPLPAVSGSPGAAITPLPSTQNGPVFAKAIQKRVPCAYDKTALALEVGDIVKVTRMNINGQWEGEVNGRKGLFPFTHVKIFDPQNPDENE
Sequence of full-length CrkL (residues 1–303) (P46109 whole entry, the tested form may be a part): as above
Sequence of full-length CrkL (residues 1–303) (human) (P46109 whole entry, the tested form may be a part): as above
Sequence of CrkL SH2 (residues 1–105) (human) (P46109 1-105): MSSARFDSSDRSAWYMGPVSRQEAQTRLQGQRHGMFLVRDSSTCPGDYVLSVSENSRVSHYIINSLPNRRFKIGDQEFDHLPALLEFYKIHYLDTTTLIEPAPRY
Sequence of CrkL SH2 (residues 1–105) (P46109 1-105): as above
Sequence of CrkL SH3^N (residues 120–188) (P46109 120-188): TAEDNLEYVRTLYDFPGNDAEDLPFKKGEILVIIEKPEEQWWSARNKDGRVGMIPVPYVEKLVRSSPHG

On to CrkL-pTyr207-peptide, for which the Kd was 23 µM in assay [1] and 7 µM in assay [2].

B1: FGFR-pTyr-peptide (peptide)
peptide: AGVSE[pY]ELPEDPR
Consider B1, for which the binding result in assay [3] is recorded as “binds”.

B2: PPII-peptide (peptide)
peptide: YLQAPELPTKTRTS
On to B2, for which the binding result in assay [4], in assay [5] and in assay [6] was “binds” in each case.
